Measured values published in paper PMC3928541.
Read-outs that look alike come from different tables or passages of the source.

How the values were obtained:
mCherry-RAB11A [1] = molecular target: mCherry-RAB11A (UniProt P62491); assay: FRET or BRET
mCherry-RAB11A [2] = molecular target: mCherry-RAB11A (UniProt P62491); assay: FRET or BRET; remark: listed apart in the source

UniProt P62491, sequence (P62491 whole entry): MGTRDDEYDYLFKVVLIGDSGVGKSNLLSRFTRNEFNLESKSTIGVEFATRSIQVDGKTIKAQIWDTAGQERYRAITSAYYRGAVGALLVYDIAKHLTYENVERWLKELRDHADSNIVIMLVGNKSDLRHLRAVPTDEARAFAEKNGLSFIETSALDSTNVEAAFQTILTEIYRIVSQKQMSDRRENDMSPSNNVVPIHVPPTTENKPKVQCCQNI

mean YFP fluorescence lifetime (FLIM) (mCherry-RAB11A [1]): 2.45 ns
mean YFP fluorescence lifetime (FLIM) (mCherry-RAB11A [2]): 2.19 ns
Substance: KIF13A-YFP fusion protein (natural protein)
